# How the values were obtained:
# 4H3590-AA = biological target: T1, 4H3590-AA; test: two-hybrid library CCmax;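 note: natural log of median RNA to DNA barcode read ratio; higher means stronger binding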
# T1 chain: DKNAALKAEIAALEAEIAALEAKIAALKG
# 4H3625-AA = biological target: T2, 4H3625-AA; test: two-hybrid library CCmax; settings: mean of both orientations;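 note: natural log of median RNA to DNA barcode read ratio; higher means stronger binding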
# T2 chain: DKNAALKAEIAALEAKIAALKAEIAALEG
# 4H3697-AA = biological target: T3, 4H3697-AA; test: two-hybrid library CCmax; settings: mean of both orientations;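 note: natural log of median RNA to DNA barcode read ratio; higher means stronger binding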
# T3 chain: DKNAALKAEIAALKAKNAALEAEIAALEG
# 4H3753-AA = biological target: T4, 4H3753-AA; test: two-hybrid library CCmax; settings: mean of both orientations;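 note: natural log of median RNA to DNA barcode read ratio; higher means stronger binding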
# T4 chain: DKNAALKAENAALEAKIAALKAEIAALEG
# 4H384-AA = biological target: T5, 4H384-AA; test: two-hybrid library CCmax; settings: mean of both orientations;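 note: natural log of median RNA to DNA barcode read ratio; higher means stronger binding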
# T5 chain: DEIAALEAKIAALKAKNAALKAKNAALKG
# 4H3865-AA = biological target: T6, 4H3865-AA; test: two-hybrid library CCmax; settings: mean of both orientations;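 note: natural log of median RNA to DNA barcode read ratio; higher means stronger binding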
# T6 chain: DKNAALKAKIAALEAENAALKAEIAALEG
# 4H3905-AA = biological target: T7, 4H3905-AA; test: two-hybrid library CCmax; settings: mean of both orientations
# T7 chain: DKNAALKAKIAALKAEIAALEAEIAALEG
# 4H4038-AA = biological target: T8, 4H4038-AA; test: two-hybrid library CCmax; settings: mean of both orientations
# T8 chain: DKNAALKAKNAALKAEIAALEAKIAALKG
# 4H43-AA = biological target: T9, 4H43-AA; test: two-hybrid library CCmax; settings: mean of both orientations
# T9 chain: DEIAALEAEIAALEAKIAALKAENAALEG
# 4H451-AA = biological target: T10, 4H451-AA; test: two-hybrid library CCmax; settings: mean of both orientations
# T10 chain: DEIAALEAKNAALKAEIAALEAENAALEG
# 4H458-AA = biological target: T11, 4H458-AA; test: two-hybrid library CCmax; settings: mean of both orientations
# T11 chain: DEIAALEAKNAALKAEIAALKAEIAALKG
# 4H485-AA = biological target: T12, 4H485-AA; test: two-hybrid library CCmax; settings: mean of both orientations
# T12 chain: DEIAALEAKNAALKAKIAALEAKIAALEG
# 4H510-AA = biological target: T13, 4H510-AA; test: two-hybrid library CCmax; settings: mean of both orientations
# T13 chain: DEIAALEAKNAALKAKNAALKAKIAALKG
# 4H536-AA = biological target: T14, 4H536-AA; test: two-hybrid library CCmax; settings: mean of both orientations
# T14 chain: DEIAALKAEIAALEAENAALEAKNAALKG
# 4H570-AA = biological target: T15, 4H570-AA; test: two-hybrid library CCmax; settings: mean of both orientations
# T15 chain: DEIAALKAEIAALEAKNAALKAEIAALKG
# 4H629-AA = biological target: T16, 4H629-AA; test: two-hybrid library CCmax; settings: mean of both orientations
# T16 chain: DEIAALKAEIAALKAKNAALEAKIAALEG
# 4H710-AA = biological target: T17, 4H710-AA; test: two-hybrid library CCmax; settings: mean of both orientations
# T17 chain: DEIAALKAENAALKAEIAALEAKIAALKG
# 4H745-AA = biological target: T18, 4H745-AA; test: two-hybrid library CCmax; settings: mean of both orientations
# T18 chain: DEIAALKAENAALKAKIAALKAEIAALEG
# 4H797-AA = biological target: T19, 4H797-AA; test: two-hybrid library CCmax; settings: mean of both orientations
# T19 chain: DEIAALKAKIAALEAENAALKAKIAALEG
# 4H850-AA = biological target: T20, 4H850-AA; test: two-hybrid library CCmax; settings: mean of both orientations
# T20 chain: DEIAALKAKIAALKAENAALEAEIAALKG
# 4H891-AA = biological target: T21, 4H891-AA; test: two-hybrid library CCmax
# T21 chain: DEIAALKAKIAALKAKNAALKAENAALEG
# 4H909-AA = biological target: T22, 4H909-AA; test: two-hybrid library CCmax; settings: mean of both orientations
# T22 chain: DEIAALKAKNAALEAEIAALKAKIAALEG
# 4H930-AA = biological target: T23, 4H930-AA; test: two-hybrid library CCmax; settings: mean of both orientations
# T23 chain: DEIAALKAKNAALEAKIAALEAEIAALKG
# 4H94-AA = biological target: T24, 4H94-AA; test: two-hybrid library CCmax; settings: mean of both orientations
# T24 chain: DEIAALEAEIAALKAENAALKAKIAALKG
# 4H_APH = biological target: T25, 4H_APH; test: two-hybrid library CCmax; settings: mean of both orientations
# T25 chain: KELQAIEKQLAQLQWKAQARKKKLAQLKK
# 4H_BCR = biological target: T26, 4H_BCR; test: two-hybrid library CCmax; settings: mean of both orientations
# T26 chain: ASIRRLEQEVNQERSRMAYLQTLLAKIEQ
# 4H_GCN4 = test: two-hybrid library CCmax
# Chain of 4H_GCN4 (chain, as listed by the source): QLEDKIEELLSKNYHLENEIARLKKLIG
# GCN2_T = test: two-hybrid library CCmax; settings: mean of both orientations
# O11-AA = biological target: T27, O11-AA; test: two-hybrid library CCmax; settings: mean of both orientations
# T27 chain: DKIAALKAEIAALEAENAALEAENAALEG
# O13-AA = biological target: T28, O13-AA; test: two-hybrid library CCmax; settings: mean of both orientations
# T28 chain: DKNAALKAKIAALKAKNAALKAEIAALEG
# O14-AA = biological target: T29, O14-AA; test: two-hybrid library CCmax; settings: mean of both orientations
# T29 chain: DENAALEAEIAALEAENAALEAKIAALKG
# P5-AA-12HAA-A = biological target: T30, P5-AA-12HAA-A; test: two-hybrid library CCmax; settings: mean of both orientations
# T30 chain: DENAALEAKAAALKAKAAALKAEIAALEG
# P5-AA-12HAA-D = biological target: T31, P5-AA-12HAA-D; test: two-hybrid library CCmax; settings: mean of both orientations
# T31 chain: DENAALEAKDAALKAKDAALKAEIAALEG
# P5-AA-12HAA-E = biological target: T32, P5-AA-12HAA-E; test: two-hybrid library CCmax; settings: mean of both orientations
# T32 chain: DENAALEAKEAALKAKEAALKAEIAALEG
# P5-AA-12HAA-H = biological target: T33, P5-AA-12HAA-H; test: two-hybrid library CCmax; settings: mean of both orientations
# T33 chain: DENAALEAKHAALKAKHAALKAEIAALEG
# P5-AA-12HAA-K = biological target: T34, P5-AA-12HAA-K; test: two-hybrid library CCmax; settings: mean of both orientations
# T34 chain: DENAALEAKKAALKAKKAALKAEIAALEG
# P5-AA-12HAA-L = biological target: T35, P5-AA-12HAA-L; test: two-hybrid library CCmax; settings: mean of both orientations
# T35 chain: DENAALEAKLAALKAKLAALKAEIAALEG
# P5-AA-12HAA-R = biological target: T36, P5-AA-12HAA-R; test: two-hybrid library CCmax; settings: mean of both orientations
# T36 chain: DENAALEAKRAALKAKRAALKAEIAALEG
# P5-AA-12HAA-S = biological target: T37, P5-AA-12HAA-S; test: two-hybrid library CCmax; settings: mean of both orientations
# T37 chain: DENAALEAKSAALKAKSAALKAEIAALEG
# P5-AA-12HAA-T = biological target: T38, P5-AA-12HAA-T; test: two-hybrid library CCmax; settings: mean of both orientations
# T38 chain: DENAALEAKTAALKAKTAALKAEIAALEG
# P5-AA-12HAA-V = biological target: T39, P5-AA-12HAA-V; test: two-hybrid library CCmax; settings: mean of both orientations
# T39 chain: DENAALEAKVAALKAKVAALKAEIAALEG
# P5-AA-12HAA-Y = biological target: T40, P5-AA-12HAA-Y; test: two-hybrid library CCmax; settings: mean of both orientations
# T40 chain: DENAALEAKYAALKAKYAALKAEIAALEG
# P5-AA-1HAA-N = biological target: T41, P5-AA-1HAA-N; test: two-hybrid library CCmax; settings: mean of both orientations
# T41 chain: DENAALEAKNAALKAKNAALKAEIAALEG
# 4H19-bN = biological target: T42, 4H19-bN; test: two-hybrid library CCNG1
# T42 chain: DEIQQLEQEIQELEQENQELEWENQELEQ
# 4H2696-bN = biological target: T43, 4H2696-bN; test: two-hybrid library CCNG1
# T43 chain: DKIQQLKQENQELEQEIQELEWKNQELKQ
# 4H2883-bN = biological target: T44, 4H2883-bN; test: two-hybrid library CCNG1
# T44 chain: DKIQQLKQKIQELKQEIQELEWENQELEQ
# 4H2937-bN = biological target: T45, 4H2937-bN; test: two-hybrid library CCNG1
# T45 chain: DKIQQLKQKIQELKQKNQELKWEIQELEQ
# 4H2944-bN = biological target: T46, 4H2944-bN; test: two-hybrid library CCNG1
# T46 chain: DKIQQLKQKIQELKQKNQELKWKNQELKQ
# 4H342-bN = biological target: T47, 4H342-bN; test: two-hybrid library CCNG1
# T47 chain: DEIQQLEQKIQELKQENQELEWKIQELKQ
# 4H48-bN = biological target: T48, 4H48-bN; test: two-hybrid library CCNG1
# T48 chain: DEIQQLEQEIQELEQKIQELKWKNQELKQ
# 4H491-bN = biological target: T49, 4H491-bN; test: two-hybrid library CCNG1
# T49 chain: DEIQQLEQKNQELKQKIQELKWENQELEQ
# Core_INII-es_KKEK = biological target: T50, Core_INII-es_KKEK; test: two-hybrid library CCmax; settings: mean of both orientations
# T50 chain: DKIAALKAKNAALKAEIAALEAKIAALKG
# Core_NIII-es_KKKE = biological target: T51, Core_NIII-es_KKKE; test: two-hybrid library CCmax; settings: mean of both orientations
# T51 chain: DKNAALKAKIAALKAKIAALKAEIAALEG
# Core_IIIN-es_KEEK = biological target: T52, Core_IIIN-es_KEEK; test: two-hybrid library CCmax; settings: mean of both orientations
# T52 chain: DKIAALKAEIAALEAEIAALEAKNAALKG
# Core_NNNN-es_KEEK = biological target: T53, Core_NNNN-es_KEEK; test: two-hybrid library CCmax; settings: mean of both orientations
# T53 chain: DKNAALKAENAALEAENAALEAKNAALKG
# Core_IIII-es_KEEK = biological target: T54, Core_IIII-es_KEEK; test: two-hybrid library CCmax; settings: mean of both orientations
# T54 chain: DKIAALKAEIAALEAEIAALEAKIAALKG
# Core_NNNI-es_KKEK = biological target: T55, Core_NNNI-es_KKEK; test: two-hybrid library CCmax; settings: mean of both orientations
# T55 chain: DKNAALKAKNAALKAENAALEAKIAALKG
binder,measurement,setting,value
DKNAALKAEIAALEAEIAALEAKIAALKG [4H3590-AA],interaction score,4H3590-AA,2.25
same,interaction score,4H3625-AA,2.07
same,interaction score,4H3697-AA,-0.287
same,interaction score,4H3753-AA,0.435
same,interaction score,4H384-AA,1.26
same,interaction score,4H3865-AA,-1.18
same,interaction score,4H3905-AA,2.01
same,interaction score,4H4038-AA,-0.327
same,interaction score,4H43-AA,1.98
same,interaction score,4H451-AA,-1.08
same,interaction score,4H458-AA,1.13
same,interaction score,4H485-AA,1.8
same,interaction score,4H510-AA,-0.0505
same,interaction score,4H536-AA,-0.687
same,interaction score,4H570-AA,-0.136
same,interaction score,4H629-AA,-0.923
same,interaction score,4H710-AA,-1.14
same,interaction score,4H745-AA,1.02
same,interaction score,4H797-AA,-1.01
same,interaction score,4H850-AA,-0.0746
same,interaction score,4H891-AA,-0.048
same,interaction score,4H909-AA,-1.14
same,interaction score,4H930-AA,-1.4
same,interaction score,4H94-AA,-1.15
same,interaction score,4H_APH,-0.247
same,interaction score,4H_BCR,-0.0889
same,interaction score,4H_GCN4,-1.16
same,interaction score,GCN2_T,-0.424
same,interaction score,O11-AA,-0.698
same,interaction score,O13-AA,1.33
same,interaction score,O14-AA,-1.17
same,interaction score,P5-AA-12HAA-A,1.75
same,interaction score,P5-AA-12HAA-D,-1.25
same,interaction score,P5-AA-12HAA-E,-0.101
same,interaction score,P5-AA-12HAA-H,1.78
same,interaction score,P5-AA-12HAA-K,2.23
same,interaction score,P5-AA-12HAA-L,2.42
same,interaction score,P5-AA-12HAA-R,1.92
same,interaction score,P5-AA-12HAA-S,1.88
same,interaction score,P5-AA-12HAA-T,1.63
same,interaction score,P5-AA-12HAA-V,2.25
same,interaction score,P5-AA-12HAA-Y,2.53
same,interaction score,P5-AA-1HAA-N,-0.0553
DEIQQLEQEIQELEQENQELEWENQELEQ [4H19-bN],interaction score,4H19-bN,-0.738
same,interaction score,4H2696-bN,-0.528
same,interaction score,4H2883-bN,-2.16
same,interaction score,4H2937-bN,-0.594
same,interaction score,4H2944-bN,2.27
same,interaction score,4H342-bN,-1.48
same,interaction score,4H48-bN,-0.58
same,interaction score,4H491-bN,-0.636
DEIAALEAENAALEAKIAALKAEIAALEG [Core_INII-es_EEKE],interaction score,Core_INII-es_KKEK,2.11
DENAALEAEIAALEAEIAALEAKIAALKG [Core_NIII-es_EEEK],interaction score,Core_NIII-es_KKKE,2.14
DEIAALEAKIAALKAKIAALKAENAALEG [Core_IIIN-es_EKKE],interaction score,Core_IIIN-es_KEEK,1.73
DENAALEAKNAALKAKNAALKAENAALEG [Core_NNNN-es_EKKE],interaction score,Core_NNNN-es_KEEK,-0.488
DEIAALEAKIAALKAKIAALKAEIAALEG [Core_IIII-es_EKKE],interaction score,Core_IIII-es_KEEK,2.36
DENAALEAENAALEAKNAALKAEIAALEG [Core_NNNI-es_EEKE],interaction score,Core_NNNI-es_KKEK,2.2
